Source: patent US20250276018A1 (AFFYIMMUNE THERAPEUTICS, published 2025)

Experiments:
[1] = target: T1, c-MET on human target cells (human, UniProt P08581 25-1390); test: cell-based or functional assay
[2] = target: T1, c-MET on human target cells; test: cell-based or functional assay; remark: listed apart in the source
[3] = target: T1, c-MET on human target cells; test: cell-based or functional assay; remark: listed apart in the source
[4] = target: T1, c-MET on human target cells; test: cell-based or functional assay; remark: listed apart in the source
[5] = target: T1, c-MET on human target cells; test: cell-based or functional assay; remark: listed apart in the source
[6] = target: T1, c-MET on human target cells; test: cell-based or functional assay; remark: listed apart in the source
[7] = target: T1, c-MET on human target cells; test: cell-based or functional assay; remark: listed apart in the source
[8] = target: T2, AF647 labeled c-met protein (UniProt P08581 25-932, limits assumed, labeled with AlexaFluor 647 (AF647)); test: flow cytometry, EC50 relative to parental Affy7 CAR-T cells (Round 2)
T2 construct: Soluble labeled c-met protein titrated on CAR-T cells
Procedure: (§1) Binding of labeled c-MET to CAR-T cells expressing the affinity tuned c-MET scFvs was evaluated by transducing lentivirus anti-c-MET CAR particles into human T cells to form c-MET CAR-T cells incubated with AF647-labeled c-MET. […] Following a 48 hr. incubation at 37° C., the culture media was brought up to […] per well and incubated at 37° C. for 10 days.
(§2) Cells were stained on ice for 30 mins and then washed with PBS. After washing, residually bound protein on CAR T cells were measured on a flow cytometer (Beckman, CytoFLEX®). The resulting binding data was fit using a non-linear regression analysis on GraphPad Prism to calculate half effective dose concentration (EC₅₀) values. The results of this analysis are shown in FIGS. 2-5 and Tables 2-5 below.

[9] = target: T2, AF647 labeled c-met protein; test: flow cytometry, AF647-labeled c-met protein titrated on CAR-T cells (Round 2)
Procedure: as §1, §2

T2 sequence (P08581 25-932 limits assumed): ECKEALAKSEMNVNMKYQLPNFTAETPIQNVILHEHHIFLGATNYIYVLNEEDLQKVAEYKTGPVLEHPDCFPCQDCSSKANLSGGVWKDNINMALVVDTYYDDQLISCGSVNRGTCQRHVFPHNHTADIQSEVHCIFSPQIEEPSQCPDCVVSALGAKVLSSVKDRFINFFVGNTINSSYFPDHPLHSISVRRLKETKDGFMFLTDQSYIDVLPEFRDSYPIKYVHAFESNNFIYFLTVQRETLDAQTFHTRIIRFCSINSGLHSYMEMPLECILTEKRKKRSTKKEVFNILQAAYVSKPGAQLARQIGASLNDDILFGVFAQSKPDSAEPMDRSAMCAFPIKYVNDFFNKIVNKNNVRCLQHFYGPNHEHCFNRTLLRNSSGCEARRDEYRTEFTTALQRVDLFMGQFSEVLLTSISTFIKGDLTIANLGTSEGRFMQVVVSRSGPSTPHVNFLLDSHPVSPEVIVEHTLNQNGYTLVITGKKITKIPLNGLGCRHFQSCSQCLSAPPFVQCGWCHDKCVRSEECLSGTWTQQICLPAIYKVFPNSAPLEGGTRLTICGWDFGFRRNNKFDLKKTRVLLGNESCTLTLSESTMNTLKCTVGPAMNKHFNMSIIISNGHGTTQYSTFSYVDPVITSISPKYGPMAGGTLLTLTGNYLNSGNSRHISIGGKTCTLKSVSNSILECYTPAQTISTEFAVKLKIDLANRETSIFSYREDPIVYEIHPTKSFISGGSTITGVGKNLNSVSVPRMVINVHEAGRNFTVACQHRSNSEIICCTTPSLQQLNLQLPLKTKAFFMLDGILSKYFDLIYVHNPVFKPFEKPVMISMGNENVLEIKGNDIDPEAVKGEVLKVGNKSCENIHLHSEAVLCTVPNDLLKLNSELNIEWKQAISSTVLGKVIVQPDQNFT
T1 sequence (P08581 25-1390): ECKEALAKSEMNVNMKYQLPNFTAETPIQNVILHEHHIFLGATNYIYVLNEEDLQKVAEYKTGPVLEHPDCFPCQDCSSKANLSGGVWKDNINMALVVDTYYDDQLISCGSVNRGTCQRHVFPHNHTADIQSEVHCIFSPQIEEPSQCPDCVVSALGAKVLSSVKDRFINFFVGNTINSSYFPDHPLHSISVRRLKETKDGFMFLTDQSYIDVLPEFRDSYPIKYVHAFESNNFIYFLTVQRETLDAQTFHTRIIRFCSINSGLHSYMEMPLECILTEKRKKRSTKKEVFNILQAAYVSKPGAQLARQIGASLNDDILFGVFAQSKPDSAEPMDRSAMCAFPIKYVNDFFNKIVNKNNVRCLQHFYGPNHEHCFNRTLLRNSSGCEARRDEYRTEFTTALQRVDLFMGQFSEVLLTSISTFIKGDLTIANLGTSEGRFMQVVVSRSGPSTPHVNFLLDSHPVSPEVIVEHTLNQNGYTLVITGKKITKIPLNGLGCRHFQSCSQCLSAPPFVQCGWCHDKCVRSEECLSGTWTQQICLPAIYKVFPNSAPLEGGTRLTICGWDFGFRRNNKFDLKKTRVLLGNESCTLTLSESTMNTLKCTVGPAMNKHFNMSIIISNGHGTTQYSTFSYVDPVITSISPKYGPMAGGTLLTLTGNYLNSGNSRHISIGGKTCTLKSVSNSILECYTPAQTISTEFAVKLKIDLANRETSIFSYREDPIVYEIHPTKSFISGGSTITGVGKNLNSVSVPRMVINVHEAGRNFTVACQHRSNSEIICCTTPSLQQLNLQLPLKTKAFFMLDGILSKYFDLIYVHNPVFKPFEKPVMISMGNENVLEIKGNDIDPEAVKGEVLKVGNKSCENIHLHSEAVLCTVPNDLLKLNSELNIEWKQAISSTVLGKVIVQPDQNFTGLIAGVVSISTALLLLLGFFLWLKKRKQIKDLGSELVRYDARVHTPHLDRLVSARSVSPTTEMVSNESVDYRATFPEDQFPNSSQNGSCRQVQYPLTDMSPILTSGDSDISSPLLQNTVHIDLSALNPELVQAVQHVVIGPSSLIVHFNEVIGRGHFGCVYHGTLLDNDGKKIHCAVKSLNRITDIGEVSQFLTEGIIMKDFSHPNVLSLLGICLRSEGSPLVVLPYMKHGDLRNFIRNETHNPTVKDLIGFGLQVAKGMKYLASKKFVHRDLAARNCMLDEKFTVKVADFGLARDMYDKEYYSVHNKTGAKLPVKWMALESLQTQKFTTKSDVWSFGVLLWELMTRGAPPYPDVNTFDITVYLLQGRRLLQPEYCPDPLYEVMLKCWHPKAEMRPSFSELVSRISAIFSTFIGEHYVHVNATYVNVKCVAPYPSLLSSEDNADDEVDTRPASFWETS

Row | Binder | percent cytotoxicity, SNU638, 24 hrs [1] | percent cytotoxicity, SNU638, 48 hrs [1] | percent cytotoxicity, SNU638, 72 hrs [1] | percent cytotoxicity, Hs746T, 24 hrs [2] | percent cytotoxicity, Hs746T, 48 hrs [2] | percent cytotoxicity, Hs746T, 72 hrs [2] | percent cytotoxicity, H1993, 24 hrs [3] | percent cytotoxicity, H1993, 48 hrs [3] | percent cytotoxicity, H1993, 72 hrs [3] | cytotoxicity, Normal Human Lung Cells, 8 hrs [4] | cytotoxicity, Normal Human Lung Cells, 16 hrs [4] | cytotoxicity, Normal Human Lung Cells, 24 hrs [4] | cytotoxicity, Normal Human Lung Cells, 32 hrs [4] | cytotoxicity, Normal Human Lung Cells, 40 hrs [4] | cytotoxicity, Normal Human Lung Cells, 48 hrs [4] | cytotoxicity, Normal Human Liver Cells, 8 hrs [5] | cytotoxicity, Normal Human Liver Cells, 16 hrs [5] | cytotoxicity, Normal Human Liver Cells, 24 hrs [5] | cytotoxicity, Normal Human Liver Cells, 32 hrs [5] | cytotoxicity, Normal Human Liver Cells, 40 hrs [5] | other results
1 | Affy7-Y6L CAR (other, CAR on transduced human T cells; Y to L in HC CDR3; P2A remnant not included; also called MycT-Affy7-Y6L CAR-SSTR2) GSEQKLISEEDLGSQVQLQQSGPELVRPGASVKMSCRASGYTFTSYWLHWVKQRPGQGLEWIGMIDPSNSDTRFNPNFKDKATLNVDRSSNTAYMLLSSLTSADSAVYYCATLGSYVSPLDYWGQGTSVTVSSGGGGSGGGGSGGGGSDIMMSQSPSSLTVSVGEKVTVSCKSSQSLLYTSSQKNYLAWYQQKPGQSPKLLIYWASTRESGVPDRFTGSGSGTDFTLTITSVKADDLAVYYCQQYYAYPWTFGGGTKLEIKRASTTTPAPRPPTPAPTIASQPLSLRPEACRPAAGGAVHTRGLDFACDFWVLVVVGGVLACYSLLVTVAFIIFWVRSKRSRLLHSDYMNMTPRRPGPTRKHYQPYAPPRDFAAYRSLRVKFSRSADAPAYQQGQNQLYNELNLGRREEYDVLDKRRGRDPEMGGKPRRKNPQEGLYNELQKDKMAEAYSEIGMKGERRRGKGHDGLYQGLSTATKDTYDALHMQALPPR | 66.9% | 84.5% | 93.5% | 1.6% | 42.9% | 64.5% | 12.8% | 42.6% | 71.2% | 21.1 | 23.6 | 22.8 | 25.4 | 25.9 | 30.1 | 6.1 | 2.3 | 2.5 | 1.1 | 0 | cytotoxicity, Normal Human Liver Cells, 48 hrs [5]: 3.2; cytotoxicity, Normal Human Kidney Cells, 8 hrs [6]: 11.7; cytotoxicity, Normal Human Kidney Cells, 16 hrs [6]: 12.9; cytotoxicity, Normal Human Kidney Cells, 24 hrs [6]: 14.8; cytotoxicity, Normal Human Kidney Cells, 32 hrs [6]: 16.2; cytotoxicity, Normal Human Kidney Cells, 40 hrs [6]: 17.1; cytotoxicity, Normal Human Kidney Cells, 48 hrs [6]: 21.4; cytotoxicity, Normal Human Colon Cells, 8 hrs [7]: 12.1; cytotoxicity, Normal Human Colon Cells, 16 hrs [7]: 16.4; cytotoxicity, Normal Human Colon Cells, 24 hrs [7]: 13.6; cytotoxicity, Normal Human Colon Cells, 32 hrs [7]: 19; cytotoxicity, Normal Human Colon Cells, 40 hrs [7]: 20; cytotoxicity, Normal Human Colon Cells, 48 hrs [7]: 17.2; Fold Change [8]: 6190 fold; EC50 [9]: 619 µM
2 | Affy7-Y6M CAR (other, CAR on transduced human T cells; Y to M in HC CDR3; P2A remnant not included; also called MycT-Affy7-Y6M CAR-SSTR2) GSEQKLISEEDLGSQVQLQQSGPELVRPGASVKMSCRASGYTFTSYWLHWVKQRPGQGLEWIGMIDPSNSDTRFNPNFKDKATLNVDRSSNTAYMLLSSLTSADSAVYYCATMGSYVSPLDYWGQGTSVTVSSGGGGSGGGGSGGGGSDIMMSQSPSSLTVSVGEKVTVSCKSSQSLLYTSSQKNYLAWYQQKPGQSPKLLIYWASTRESGVPDRFTGSGSGTDFTLTITSVKADDLAVYYCQQYYAYPWTFGGGTKLEIKRASTTTPAPRPPTPAPTIASQPLSLRPEACRPAAGGAVHTRGLDFACDFWVLVVVGGVLACYSLLVTVAFIIFWVRSKRSRLLHSDYMNMTPRRPGPTRKHYQPYAPPRDFAAYRSLRVKFSRSADAPAYQQGQNQLYNELNLGRREEYDVLDKRRGRDPEMGGKPRRKNPQEGLYNELQKDKMAEAYSEIGMKGERRRGKGHDGLYQGLSTATKDTYDALHMQALPPR | 61.2% | 77.5% | 90.6% | 47.6% | 87% | 96.4% | 21.3% | 70.5% | 89.6% | 9.9 | 9.7 | 6.3 | 6.9 | 9.5 | 13.8 | 7.2 | 6.2 | 9 | 10.9 | 11.3 | cytotoxicity, Normal Human Liver Cells, 48 hrs [5]: 10; cytotoxicity, Normal Human Kidney Cells, 8 hrs [6]: 8.8; cytotoxicity, Normal Human Kidney Cells, 16 hrs [6]: 10; cytotoxicity, Normal Human Kidney Cells, 24 hrs [6]: 12; cytotoxicity, Normal Human Kidney Cells, 32 hrs [6]: 13.3; cytotoxicity, Normal Human Kidney Cells, 40 hrs [6]: 15.9; cytotoxicity, Normal Human Kidney Cells, 48 hrs [6]: 19.7; cytotoxicity, Normal Human Colon Cells, 8 hrs [7]: 1.4; cytotoxicity, Normal Human Colon Cells, 16 hrs [7]: 1.7; cytotoxicity, Normal Human Colon Cells, 24 hrs [7]: 1.4; cytotoxicity, Normal Human Colon Cells, 32 hrs [7]: 7.1; cytotoxicity, Normal Human Colon Cells, 40 hrs [7]: 1.8; cytotoxicity, Normal Human Colon Cells, 48 hrs [7]: 3.6; Fold Change [8]: 172 fold; EC50 [9]: 17.2 µM
3 | Affy7-Y6V CAR (other, CAR on transduced human T cells; Y to V in HC CDR3; P2A remnant not included; also called MycT-Affy7-Y6V CAR-SSTR2) GSEQKLISEEDLGSQVQLQQSGPELVRPGASVKMSCRASGYTFTSYWLHWVKQRPGQGLEWIGMIDPSNSDTRFNPNFKDKATLNVDRSSNTAYMLLSSLTSADSAVYYCATVGSYVSPLDYWGQGTSVTVSSGGGGSGGGGSGGGGSDIMMSQSPSSLTVSVGEKVTVSCKSSQSLLYTSSQKNYLAWYQQKPGQSPKLLIYWASTRESGVPDRFTGSGSGTDFTLTITSVKADDLAVYYCQQYYAYPWTFGGGTKLEIKRASTTTPAPRPPTPAPTIASQPLSLRPEACRPAAGGAVHTRGLDFACDFWVLVVVGGVLACYSLLVTVAFIIFWVRSKRSRLLHSDYMNMTPRRPGPTRKHYQPYAPPRDFAAYRSLRVKFSRSADAPAYQQGQNQLYNELNLGRREEYDVLDKRRGRDPEMGGKPRRKNPQEGLYNELQKDKMAEAYSEIGMKGERRRGKGHDGLYQGLSTATKDTYDALHMQALPPR | 68.1% | 81.9% | 93.2% | 65% | 94.8% | 98.2% | 40% | 84.2% | 93.8% | 18.2 | 18 | 15.4 | 17.9 | 16.7 | 21.5 | 6.5 | 3.9 | 5.5 | 8.7 | 10.7 | cytotoxicity, Normal Human Liver Cells, 48 hrs [5]: 10.8; cytotoxicity, Normal Human Kidney Cells, 8 hrs [6]: 9.3; cytotoxicity, Normal Human Kidney Cells, 16 hrs [6]: 9.7; cytotoxicity, Normal Human Kidney Cells, 24 hrs [6]: 10.6; cytotoxicity, Normal Human Kidney Cells, 32 hrs [6]: 10.3; cytotoxicity, Normal Human Kidney Cells, 40 hrs [6]: 11; cytotoxicity, Normal Human Kidney Cells, 48 hrs [6]: 14.8; cytotoxicity, Normal Human Colon Cells, 8 hrs [7]: 9.4; cytotoxicity, Normal Human Colon Cells, 16 hrs [7]: 13.5; cytotoxicity, Normal Human Colon Cells, 24 hrs [7]: 14; cytotoxicity, Normal Human Colon Cells, 32 hrs [7]: 18.2; cytotoxicity, Normal Human Colon Cells, 40 hrs [7]: 20.3; cytotoxicity, Normal Human Colon Cells, 48 hrs [7]: 22.2; Fold Change [8]: 53 fold; EC50 [9]: 5.3 µM
